Marks after values point to notes of the source that are not given here.
Experiments:
[1] = system: T47D wild-type breast cancer cells; experiment: xCELLigence real-time killing assay (impedance); assay type: cell-based, human
Experimental: FIGS. 49A-49J show traces from the real-time killing assays performed on an xCELLigence instrument. In this assay, impedance is measured in real-time. When the adherent cancer cells are killed and come off of the electrode surface, impedance (insulation) decreases. T47D wild-type breast cancer cells were plated onto multi-electrode-well plates at 5,000 cells per well and allowed to adhere and grow for 24 hours before the addition of ADCs. Either MNC2-MMAE, DAR 4.1, MN20A10-MMAE, DAR 5.8, MNC2-MMAF, DAR 3.7, MN20A10-MMAF, DAR 3.8, MNC2-Deruxtecan, DAR 7.2, or MN20A10-Deruxtecan, DAR 4.6, was then added to the cancer cells. […] Taxol and Triton are added as the positive killing control. […] Taxol and Triton are added as the positive killing control. […]
(§1) To assess real-time killing of target cancer cells including breast cancer cells (T47D), non-small cell lung cancer cells (NCI-H1975) and pancreatic cancer cells (HP AF II) assays were performed on an xCELLigence RTCA MP Instrument (Agilent). Target Cancer cells were seeded onto a multi-electrode well plate at a density of 5000 cells/well (100 μL of a 50,000 cells/mL stock) and incubated for 24 hr in a 37° C./5% CO2 incubator. mAb MNC2 ADCs or mAb MN20A10-ADCs were prepared as a 2× solution in corresponding growth media and 100 μL of each concentration was added to target cells. As a positive control (100% cell killing) cells were treated with either 1% triton or 1 μM Taxol instead of ADC. After 40-120 hours incubation in a 37° C./5% CO2 incubator cell killing was assessed. In this assay, impedance is measured in real-time. When the adherent cancer cells are killed and come off the electrode surface, impedance (insulation) decreases.
(§2) MNC2-ADCs and MN20A10-ADCs were also assayed for their ability to kill both low and high MUC1* expressing cells by monitoring killing in real-time using an xCELLigence instrument. In the xCelligence system, target cancer cells, which are adherent, are plated onto electrode array 96-well plates. Adherent cells insulate the electrode and increase the impedance. The number of adherent cancer cells is directly proportional to impedance. […] Therefore, increasing impedance reflects the growth of the cancer cells and decreasing impedance reflects the killing of the cancer cells.
Breast cancer cell line T47D-wt expresses MUC1* at low to low-medium levels. Pancreatic cancer cell line HPAF II-wt expresses even lower levels of MUC1* and lung cancer cell line NCI-H1975 express still lower levels of MUC1*.

[2] = system: T47D-MUC1* breast cancer cells; experiment: xCELLigence real-time killing assay (impedance); assay type: cell-based, human
Experimental: In this assay, impedance is measured in real-time. When the adherent cancer cells are killed and come off of the electrode surface, impedance (insulation) decreases. […] Either MNC2-MMAE, DAR 4.1, MN20A10-MMAE, DAR 5.8, MNC2-MMAF, DAR 3.7, MN20A10-MMAF, DAR 3.8, MNC2-Deruxtecan, DAR 7.2, or MN20A10-Deruxtecan, DAR 4.6, was then added to the cancer cells. […] Taxol and Triton are added as the positive killing control. […] Taxol and Triton are added as the positive killing control.
In this assay, impedance is measured in real-time. When the adherent cancer cells are killed and come off of the electrode surface, impedance (insulation) decreases. […] Either MNC2-Exatecan, DAR 8.2, MNC2-Deruxtecan, DAR 4.0, MNC2-MMAE, DAR 4.1, or free Exatecan at 50 μM, was then added to the cancer cells.
as §1, §2

[3] = system: NCI-H1975 lung cancer cells; experiment: xCELLigence real-time killing assay (impedance); assay type: cell-based, human; settings: readout 0 to 120 hours, DAR 8.2 (FIG. 56)
Experimental: FIG. 51A-51I show traces from the real-time killing assays performed on an xCELLigence instrument. In this assay, impedance is measured in real-time. When the adherent cancer cells are killed and come off of the electrode surface, impedance (insulation) decreases. NCI-H1975 lung cancer cells were plated onto multi-electrode-well plates at 5,000 cells per well and allowed to adhere and grow for 24 hours before the addition of ADCs. Either MNC2-MMAE, DAR 4.1, MN20A10-MMAE, DAR 5.8, MNC2-MMAF, DAR 3.7, MN20A10-MMAF, DAR 3.8, MNC2-Deruxtecan, DAR 7.2, or MN20A10-Deruxtecan, DAR 4.6, was then added to the cancer cells. […] Taxol and Triton are added as the positive killing control. […].
FIGS. 56A-56D show traces from the real-time killing assays performed on an xCELLigence instrument. In this assay, impedance is measured in real-time. When the adherent cancer cells are killed and come off of the electrode surface, impedance (insulation) decreases. Here NCI-H1975 non-small cell lung cancer cells that express very low levels of MUC1*, were plated onto multi-electrode 96-well plates at 5,000 cells per well and allowed to adhere and grow for 24 hours before the addition of ADCs. Either MNC2-Exatecan, DAR 8.2, MNC2-Deruxtecan, DAR 4.0, MNC2-MMAE, DAR 4.1, or free Exatecan at 50 μM, was then added to the cancer cells.
as §1, §2

[4] = system: cancer cells that express low levels of MUC1*; experiment: xCELLigence real-time killing assay, summary over low expressers; assay type: cell-based; settings: FIG. 54 and FIG. 56, DAR 8.2
[5] = system: DU145 hormone refractory prostate cancer cells; experiment: PrestoBlue live/dead cell assay and brightfield photographs; assay type: cell-based; settings: 500 nM, 20× magnification
[6] = Toxicities in animal studies of the ADC formats; assay type: in vivo; settings: each antibody incorporated into several ADC formats
Source text: Exatecans have a high level of bystander effect, meaning that they can kill neighboring cells. […] It is not completely clear whether these side effects are due to the payload or to the target, HER2, which is also expressed on normal lung and normal heart. Recall that the first two patients treated with a HER2 targeting CAR T cell product died shortly after the infusion. […] More recently, yet another patient died after being treated with a different HER2-targeting ADC.

B1: MNC2-Exatecan (conjugate)
VH: EVQLVESGGGLVKPGGSLRLSCAASGFTFSGYAMSWVRQAPGKGLEWVSTISSGGTYIYYPDSVKGRFTISRDNAKNSLYLQMNSLRAEDTAVYYCARLGGDNYYEYFDVWGKGTTVTVSS
VL: DIVLTQSPASLAVSPGQRATITCRASKSVSTSGYSYMHWYQQKPGQPPKLLIYLASNLESGVPARFSGSGSGTDFTLTINPVEANDTANYYCQHSRELPFTFGGGTKVEIKRT
concentration as low as which target cancer cells are potently killed ([1]; readout 0 to 120 hours, DAR 8.2 (FIG. 54)): 56 nM | concentration as low as which cancer cells are potently killed ([2]; readout 0 to 120 hours, MNC2-Exatecan DAR 8.2, MNC2-Deruxtecan DAR 4.0 (FIG. 55)): as low as 6.2 nM and even as low as 2.1 nM | concentration as low as which cancer cells are potently killed [3]: 167 nM | killing potency compared with MNC2-deruxtecan (DAR 4.0) and MNC2-MMAE (DAR 4.1) [4]: more potent killing of the low MUC1* expressing cancer cells

B2: MN20A10-Deruxtecan (conjugate)
VH: QVQLVESGGGLVKPGGSLRLSCAASGFTFSTYAMSWIRQAPGKGLEWVASIGRAGSTYYSDSVKGRFTISRDNAKNSLYLQMNSLRAEDTAVYYCARGPIYNDYDEFAYWGQGTLVTVSS
VL: EIVLTQSPATLSLSPGERATLSCKSSQSVLYSSNQKNYLAWYQQKPGQAPRLLIYWASTRESGIPARFSGSGSGTDFTLTISSLEPEDFAVYYCHQYLSSLTFGGGTKVEIKR
cell morphology in photographs [5]: rounding up and dead cells | concentration showing potent / effective / comparable killing ([1]; after 120 hours): 167 nM | concentration with significant killing ([1]; by 120 hours, DAR 4.6): 167 nM | ADC concentration at which essentially all (near total) tumor cells were killed ([2]; readout 120 hours post ADC addition): 167 nM

B3: MN20A10: anti-MUC1* antibody, IgG2b isotype, CDRs SEQ ID NO 1-3 and 13-15 (antibody, V domains shown)
VH: EVMLVESGGGLVKPGGSLKLSCAASGFTFSTYAMSWIRQTPEKRLEWVASIGRAGSTYYSDSVKGRFTISRDNVRNILYLQMSSLRSEDTAMYYCARGPIYNDYDEFAYWGQGTLVTVSA
VL: NIMMTQSPSSLAVSAGEKVTMSCKSSQSVLYSSNQKNYLAWYQQKPGQSPKLLIYWASTRESGVPDRFTGSGSGTDFTLTISSVQAEDLAVYYCHQYLSSLTFGAGTKLELK
toxicities [6]: elicited no toxicities in animal studies

— patent US12491259B2, “Anti-variable MUC1* antibodies and uses thereof” (Minerva Biotechnologies Corporation, priority 2022, dated 2025)
